Measurements as given in article PMC10899662, “TopBP1 utilises a bipartite GINS binding mode to support genome replication” (Nature Communications, 2024).
Substitutions are numbered along the chain they refer to.

B1: TopBP1-BRCT0-5-WT: recombinant TopBP1 amino acids 1–766, strep-tagged (protein)
chain: MSRNDKEPFFVKFLKSSDNSKCFFKALESIKEFQSEEYLQIITEEEALKIKENDRSLYICDPFSGVVFDHLKKLGCRIVGPQVVIFCMHHQRCVPRAEHPVYNMVMSDVTISCTSLEKEKREEVHKYVQMMGGRVYRDLNVSVTHLIAGEVGSKKYLVAANLKKPILLPSWIKTLWEKSQEKKITRYTDINMEDFKCPIFLGCIICVTGLCGLDRKEVQQLTVKHGGQYMGQLKMNECTHLIVQEPKGQKYECAKRWNVHCVTTQWFFDSIEKGFCQDESIYKTEPRPEAKTMPNSSTPTSQINTIDSRTLSDVSNISNINASCVSESICNSLNSKLEPTLENLENLDVSAFQAPEDLLDGCRIYLCGFSGRKLDKLRRLINSGGGVRFNQLNEDVTHVIVGDYDDELKQFWNKSAHRPHVVGAKWLLECFSKGYMLSEEPYIHANYQPVEIPVSHKPESKAALLKKKNSSFSKKDFAPSEKHEQADEDLLSQYENGSSTVVEAKTSEARPFNDSTHAEPLNDSTHISLQEENQSSVSHCVPDVSTITEEGLFSQKSFLVLGFSNENESNIANIIKENAGKIMSLLSRTVADYAVVPLLGCEVEATVGEVVTNTWLVTCIDYQTLFDPKSNPLFTPVPVMTGMTPLEDCVISFSQCAGAEKESLTFLANLLGASVQEYFVRKSNAKKGMFASTHLILKERGGSKYEAAKKWNLPAVTIAWLLETARTGKRADESHFLIENSTKEERSLETEITNGINLNSDTAEHP
modifications: left off: Strep, C-terminal, kept
notes: recombinant TopBP1 amino acids 1–766, strep-tagged
B2: TopBP1-Gpp: TopBP1-BRCT0-5, central leucine-leucine motif mutated to two consecutive prolines (protein)
chain: B1 chain with L490P, L491P
modifications: left off: Strep, C-terminal, kept
notes: TopBP1-BRCT0-5, central leucine-leucine motif mutated to two consecutive prolines
B3: TopBP1-B4mut: Val590, Thr606 and Val610 mutated to glutamate, arginine and glutamate (protein)
chain: B1 chain with V590E, T606R, V610E
modifications: left off: Strep, C-terminal, kept

Tested on: GINS
Assay: Pulldown of recombinant TopBP1-BRCT0-5 by immobilised GINS, 150 mM NaCl
Format: binding
Conditions: for GINS binding? (rec. proteins): summary of recombinant protein interaction tests (yes/no); for GINS interaction: 100 nM TopBP1, 20 mM HEPES pH 8.0, 150 mM NaCl, 0.01% Tween-20, 45 min, 4 °C
Source text: Fig. 1 GINS and TopBP1 interact. a (i) Domain model of human (hs) TopBP1, its conservation with BRCT1/2 and 3/4 domains (grey boxes) of budding yeast Dpb11 (scDpb11). Arrows point to binding domains for interacting proteins. (ii) Overview of TopBP1 wild type (WT) and BRCT deletion (Δ) and point mutants. GINS binding capabilities are labelled in red and green. Numbers, amino acid position; capital letters indicate amino acid substitutions. Amino acid substitutions of point mutants in BRCT4 (B4mut) and 5 (B5mut) are coloured orange. b Elution profiles of size exclusion chromatography (Superdex200) of individual recombinant TopBP1-BRCT0-5 protein (grey) and GINS tetramers (green), or of both upon incubation (blue). c Recombinant GINS immobilised on Flag-beads and control beads (Flag peptide-coupled beads) were used to pull down recombinant TopBP1-0-5-WT or TopBP1-ΔBRCT4/5 (compare a(ii)). SDS gels were silver stained. kDa specifies molecular weight marker bands. The experiment was done more than three times with similar results. Source data are provided as a Source data file. TEXT PRINTED IN THE PICTURE: (a) BRCT0-5-WT: GINS binding? (rec. proteins): yes | (a) ΔBRCT4/5: GINS binding? (rec. proteins): no | (a) ΔBRCT3: GINS binding? (rec. proteins): yes | (a) ΔBRCT0/1/2: GINS binding? (rec. proteins): yes | (a) B5mut: GINS binding? (rec. proteins): yes | (a) B4mut: GINS binding? (rec. proteins): no
Fig. 2 Protein structure of the GINS-TopBP1-BRCT4/5 complex. a Structural model of the GINS-TopBP1-BRCT4/5 complex. Crystal structures of the GINS subunits (PDB:2E9X) (shades of green, yellow), and the central BRCT4/5 domain of TopBP1 (PDB:3UEN) (grey) were docked into the cryo-EM volume shown as transparent volume. b Zoom-in of the BRCT4-Psf1 interface. The residues in stick representation appear crucial for the interface. Mutations to break the interaction are coloured pink (Psf1-I97R) and purple (TopBP1-B4mut; compare Fig. 1a(ii)). c Pulldown of the indicated recombinant TopBP1-BRCT0-5-strep versions (see Fig. 1a(ii)) by Flag-beads-immobilised recombinant GINS or Flag peptide-coupled control beads. Analysis was done by immunoblotting. The experiment was done more than three times with similar results. d Pulldown of the indicated recombinant TopBP1-BRCT0-5-WT-strep using immobilised GINS-WT or GINS carrying a Ile97 to arginine mutation in Psf1.TopBP1-Gcc/B4mut-strep (Figs. 1a(ii) and 3a) was used as a non-GINS binding control. The experiment was done twice with similar results. Source data are provided as a Source data file.
Fig. 3 The conserved core of the TopBP1-GINI domain is required for a stable interaction with GINS. a Domain model and T-COFFEE alignment (one-letter aa code) of TopBP1 proteins from humans (Q92547) Xenopus laevis (Q7ZZY3), Bos taurus (A0A3Q1LWE4) and Rattus norvegicus (A0A8I6GFZ6). Coloured boxes indicate GINI region mutants in sub-regions I (blue), II (green) and III (orange), and in the GINI core helix (red) (details in Supplementary Fig. 7). Amino acid substitutions, names of GINI core region mutations and corresponding GINS binding capabilities are shown. ., : and * indicate low conservation, high conservation and identical amino acids, respectively. b/c Pulldown of recombinant TopBP1-BRCT0-5-strep-WT or the indicated GINI region mutants (a) by bead-immobilised GINS or Flag peptide-coupled control beads. Analysis was done by immunoblotting. The experiments were done more than three times with similar results. Source data are provided as a Source data file. d Fluorescence polarisation measurements including dissociation constants (kD) calculations using recombinant GINS tetramer and fluorescently labelled TopBP1-GINI-core peptides (WT or Gpp (a)). For each peptide n = 3 independent experiments and data are presented as mean values +/−SEM. TEXT PRINTED IN THE PICTURE: (a) TopBP1-Gcc: GINS binding? (rec. proteins): no | (a) TopBP1-Gcore: GINS binding? […]

| Molecule | GINS binding? (rec. proteins) | GINS interaction |
| --- | --- | --- |
| B1 | yes |  |
| B2 | no | strongly compromised |
| B3 | no | strongly compromised in its ability to bind GINS |
